According to paper doi:10.1101/2020.10.29.360719, “Phase separation of the LINE-1 ORF1 protein is mediated by the N-terminus and coiled-coil domain” (bioRxiv, 2020):

Assays:
[1] = molecular target: T1, ORF1_(53-152) (coiled-coil domain of ORF1) (human, UniProt Q9UN81 53-152); assay: NMR titration; 15N-1H HSQC and 15N relaxation of the 15N-enriched N-terminal construct with non-labeled coiled-coil construct added (equimolar, 700 uM each in Fig. 3C); 25 °C; 20 mM HEPES pH 7.25 or 20 mM MES pH 6.0, 200 mM NaCl, 1 mM DTT; details: both partners purified
T1 construct: Non-labeled in the NMR experiments; also called full-length coiled-coil domain; trimeric coiled-coil domain; source: E. coli BL21STAR(DE3), purified (Ni-NTA, Sephacryl S-300 gel filtration)
T1 sequence (looked up): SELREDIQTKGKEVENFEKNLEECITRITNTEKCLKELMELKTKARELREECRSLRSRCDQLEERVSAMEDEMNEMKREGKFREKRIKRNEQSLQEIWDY

[2] = molecular target: the molecule itself; assay: SEC; gel filtration, GE HiPrep 16/60 Sephacryl S-300 HR, 20 mM Tris pH 8.0, 1 M NaCl, 1 mM DTT; self-association (trimer)

B1: ORF1_(1-53) (disordered N-terminal region of ORF1) (domain or fragment, human, UniProt Q9UN81 1-53, looked up)
chain: MGKKQNRKTGNSKTQSASPPPKERSSSPATEQSWMENDFDELREEGFRRSNYS
notes: LINE-1 ORF1 protein, human, residues 1-53; 15N (and for assignment 13C) isotope enriched for NMR; also called N-terminus; N-terminal region (1-53); source: E. coli BL21STAR(DE3), purified (Ni-NTA, heat 70°C, gel filtration); not shown: histidine tag, C-terminal, kept
B1: binds [1].

B2: ORF1_(1-141) (domain or fragment, human, UniProt Q9UN81 1-141, looked up)
chain: MGKKQNRKTGNSKTQSASPPPKERSSSPATEQSWMENDFDELREEGFRRSNYSELREDIQTKGKEVENFEKNLEECITRITNTEKCLKELMELKTKARELREECRSLRSRCDQLEERVSAMEDEMNEMKREGKFREKRIKR
notes: LINE-1 ORF1 protein, human, residues 1-141 (N-terminus and coiled-coil domain lacking the C-terminal 12 residues); source: E. coli BL21STAR(DE3), purified (Ni-NTA, gel filtration)
B2 was tested, and the “stoichiometry N” value [2] was 3.

B3: full-length ORF1_(1-338) protein (LINE-1 ORF1 protein) (natural protein, human, UniProt Q9UN81 1-338, looked up)
chain: MGKKQNRKTGNSKTQSASPPPKERSSSPATEQSWMENDFDELREEGFRRSNYSELREDIQTKGKEVENFEKNLEECITRITNTEKCLKELMELKTKARELREECRSLRSRCDQLEERVSAMEDEMNEMKREGKFREKRIKRNEQSLQEIWDYVKRPNLRLIGVPESDVENGTKLENTLQDIIQENFPNLARQANVQIQEIQRTPQRYSSRRATPRHIIVRFTKVEMKEKMLRAAREKGRVTLKGKPIRLTADLSAETLQARREWGPIFNILKEKNFQPRISYPAKLSFISEGEIKYFIDKQMLRDFVTTRPALKELLKEALNMERNNRYQPLQNHAKM
notes: LINE-1 (L1) ORF1 protein, human, residues 1-338, 40 kDa; No tag removal is described; The histidine tag is only named in the legends for ORF1_(1-53); also called L1 ORF1 protein; wild-type ORF1; source: E. coli BL21STAR(DE3), purified (Ni-NTA, Sephacryl S-300 gel filtration)
With B3 the “stoichiometry N” value [2] was 3.

B4: ORF1_(1-46) (domain or fragment, human, UniProt Q9UN81 1-46, looked up)
chain: MGKKQNRKTGNSKTQSASPPPKERSSSPATEQSWMENDFDELREEG
notes: LINE-1 ORF1 protein, human, residues 1-46; Observed by 15N-1H HSQC, so isotope enriched; also called truncated ORF1_(1-46) construct; source: E. coli BL21STAR(DE3), purified (Ni-NTA, gel filtration)
B4: binds [1].

B5: ORF1_(1-131) (domain or fragment, human, UniProt Q9UN81 1-131, looked up)
chain: MGKKQNRKTGNSKTQSASPPPKERSSSPATEQSWMENDFDELREEGFRRSNYSELREDIQTKGKEVENFEKNLEECITRITNTEKCLKELMELKTKARELREECRSLRSRCDQLEERVSAMEDEMNEMKRE
notes: LINE-1 ORF1 protein, human, residues 1-131 (N-terminus and coiled-coil domain lacking the C-terminal 22 residues); source: E. coli BL21STAR(DE3), purified (Ni-NTA, gel filtration)
In the case of B5, the “stoichiometry N” value [2] is reported as 3.
